Results as given in article PMC3517013.

How the values were obtained:
purified protein [1] = substrate: O=C(O)CCC(=O)C(=O)O; assay: purified protein; type: biochemical, Streptomyces hygroscopicus; conditions: apparent; co-substrate validamycin A, Fe(II)
purified protein [2] = substrate: OCC1=C[C@H](N[C@H]2C[C@H](CO)[C@@H](O[C@@H]3O[C@H](CO)[C@@H](O)[C@H](O)[C@H]3O)[C@H](O)[C@H]2O)[C@H](O)[C@@H](O)[C@@H]1O; assay: purified protein; type: biochemical, Streptomyces hygroscopicus; conditions: apparent; co-substrate α-ketoglutarate, Fe(II); hydroxylation at C-6'

B1: VldW (Streptomyces hygroscopicus subsp. limoneus) (protein)
chain: MTGSVPIVDLEAWRAADEENRASLAEIIDGALHTVGTFLLAGHGVPAELTARMRTAGRSFFDLPWEKKEPHAVQRPHDNGWRGLVKHRTDTIEGTGGAPDLHEAFHMGPTHRTGDDAFDALYYPANKWPAELPELRETALAYTAHMTRVAGAVMEMLAGVLGLEPAFFTSRCEHATWTQSVNWYPSLDTVGQTAEGQMRVGPHTDFGTITLLDRQQGVSGLEVWSEEDGWFAPPFVEGTLLVNLGDLMHQWTDGRWRSLRHRVLAPSASAPQEELVSLVYFFDADPEAELVPLAAPVGGGAGMPTVNVGETILKKNIQMLTDLKGHGLFQGELSLSRPGSADSPGSSPADDHPSRPGRHPAQGPQ
Q: Which results are given for B1?
A: Km (purified protein [1]): 19 ± 3.5 µM; kcat (purified protein [1]): 0.0162 ± 0.00233 s⁻¹; Km (purified protein [2]): 303 ± 36 µM; kcat (purified protein [2]): 0.0162 ± 0.00233 s⁻¹
